Data as given in the supplement of paper PMC7877785.
± gives the uncertainty stated by the source.

Test: self-splicing fitness, log relative to wild type (ln ratio); higher = more splicing; Tetrahymena group I intron in knt gene, E. coli kanamycin selection, DiMSum; sequences stand for … in CUCUCU…GGAGGGAAAAGUUAUCAGGCAUGCACCUGGUAGCUAGUCUUUAAACCAAUAGAUUGCAUCGGUUUAAAAGGCAAGACCGUCAAAUUGCGGGAAAGGGGUCAACAGCCGUUCAGUACCAAGUCUCAGGGGAAACUUUGAGAUGGCCUUGCAAAGGGUAUGGUAAUAAGCUGACGGACAUGGUCCUAACCACGCAGCCAAGUCCUAAGUCAACAGAUCUUCUGUUGAUAUGGAUGCAGUUCACAGACUAAAUGUCGGUCGGGGAAGAUGUAUUCUUCUCAUAAGAUAUAGUCGGACCUCUCCUUAAUGGGAGCUAGCGGAUGAAGUGAUGCAACACUGGAGCCGCUGGGAACUAAUUUGUAUGCGAAAGUAUAUUGAUUAGUUUUGGAGUACUCGUGGUCG
In short: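 Six replicate transformations of E. coli BL21(DE3) with a pET-22b(+) library were grown overnight at 37°C or 30°C. The library randomised all eight P1ex-region intron nucleotides, the intron lying in the knt kanamycin-resistance gene, and plates were LB agar with or without 25 μg/mL kanamycin plus 100 μg/mL carbenicillin, 50 μM IPTG and 0.2% rhamnose. Pooled colonies were amplicon-sequenced on an Illumina HiSeq 2500, and fitness is the DiMSum error-weighted combination of wild-type-normalised replicate fold changes, kanamycin versus none.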

Sequence | self-splicing fitness (ln) (30 °C) | self-splicing fitness (ln) (37 °C)
UUCUAGCAAUAUUACGACCU | -0.905 ± 0.42 | -2.63 ± 0.44
GGAGAGCAAUAUUACGAAAA | – | -0.772 ± 0.31
AUUAAGCAAUAUUACGUUGU | -1.98 ± 0.21 | -2.8 ± 0.32
UCGCAGCAAUAUUACGUCCA | -0.754 ± 0.086 | -0.0511 ± 0.094
UGGGAGCAAUAUUACGACAU | -3.84 ± 0.039 | -2.9 ± 0.05
UACGAGCAAUAUUACGAGAA | -2.33 ± 0.35 | –
UCGAAGCAAUAUUACGGCGG | -1.14 ± 0.11 | -0.364 ± 0.17
CGAUAGCAAUAUUACGCAAC | -3.83 ± 0.4 | -2.49 ± 0.3
ACAAAGCAAUAUUACGCAAC | -2.37 ± 0.17 | -0.412 ± 0.17
CCCAAGCAAUAUUACGAUAA | -3.19 ± 0.14 | -3.49 ± 0.2
GACCAGCAAUAUUACGAGUA | -1.03 ± 0.087 | 0.128 ± 0.084
CACCAGCAAUAUUACGUCGC | -3.1 ± 0.12 | -2.28 ± 0.17
ACCUAGCAAUAUUACGAAUG | -3.04 ± 0.15 | -2.3 ± 0.13
UGUUAGCAAUAUUACGCAUG | -1.38 ± 0.084 | -0.483 ± 0.089
UAAUAGCAAUAUUACGAGGU | -3.06 ± 0.2 | -2.65 ± 0.26
UAGCAGCAAUAUUACGGGCA | -0.608 ± 0.11 | -0.41 ± 0.1
UGCGAGCAAUAUUACGUAAC | -3.17 ± 0.18 | -3.09 ± 0.27
GCGGAGCAAUAUUACGAUUA | -2.93 ± 0.22 | -1.73 ± 0.23
AGCGAGCAAUAUUACGAAGU | -3.59 ± 0.29 | -1.57 ± 0.21
AUAUAGCAAUAUUACGAUGU | 0.361 ± 0.18 | -0.83 ± 0.23
GUCGAGCAAUAUUACGCCCG | -2.96 ± 0.48 | -2.03 ± 0.4

Sequence | self-splicing fitness (ln) (30 °C) | self-splicing fitness (ln) (37 °C)
GCCAAGCAAUAUUACGUUUU | -2.86 ± 0.085 | -1.3 ± 0.093
UUAGAGCAAUAUUACGAGGG | – | -2.64 ± 0.44
GUUAAGCAAUAUUACGUCAG | – | -2.22 ± 0.4
CCCGAGCAAUAUUACGGAUA | -3.04 ± 0.22 | -2.89 ± 0.27
GCUCAGCAAUAUUACGAAUG | -1.59 ± 0.12 | -0.636 ± 0.14
GCCGAGCAAUAUUACGAUUC | -1.3 ± 0.13 | 0.294 ± 0.17
GACUAGCAAUAUUACGUCCA | -2.24 ± 0.29 | -1.47 ± 0.26
GCUCAGCAAUAUUACGUGUG | -1.26 ± 0.063 | -0.824 ± 0.074
GAAUAGCAAUAUUACGGCGA | -1.11 ± 0.11 | -0.3 ± 0.11
AAUAAGCAAUAUUACGGGGU | -3.91 ± 0.31 | -3.11 ± 0.23
CGCGAGCAAUAUUACGCGGG | -3.4 ± 0.17 | -3.6 ± 0.25
CUUCAGCAAUAUUACGAUUU | -3.34 ± 0.21 | -2.33 ± 0.18
AGUAAGCAAUAUUACGGCUG | -0.953 ± 0.11 | -0.941 ± 0.12
UAAGAGCAAUAUUACGUGAG | -1.37 ± 0.13 | -0.181 ± 0.23
CCCCAGCAAUAUUACGGGGG | -4.74 ± 0.16 | -2.67 ± 0.12
AAAAAGCAAUAUUACGUUGA | -2.63 ± 0.11 | -1.48 ± 0.12
CAUCAGCAAUAUUACGACUC | -1.82 ± 0.26 | -0.687 ± 0.23
CGGUAGCAAUAUUACGUCCC | -0.348 ± 0.48 | 0.985 ± 0.48
GAAGAGCAAUAUUACGCGAA | -3.32 ± 0.23 | -2.94 ± 0.38
ACGAAGCAAUAUUACGGACG | -1.55 ± 0.13 | -0.00573 ± 0.18
GCGAAGCAAUAUUACGUCAC | – | -2.82 ± 0.3

Sequence | self-splicing fitness (ln) (30 °C) | self-splicing fitness (ln) (37 °C)
UUGUAGCAAUAUUACGAUGU | -3.86 ± 0.29 | -0.334 ± 0.12
ACAAAGCAAUAUUACGCUAG | -1.53 ± 0.072 | -1.72 ± 0.086
UCCCAGCAAUAUUACGCAAU | -2.69 ± 0.11 | -2.16 ± 0.13
GAGCAGCAAUAUUACGAUCA | -2.14 ± 0.15 | -1.99 ± 0.15
GAUAAGCAAUAUUACGAACC | -0.954 ± 0.1 | -0.647 ± 0.13
GGCGAGCAAUAUUACGGUCU | -1.89 ± 0.2 | -1.03 ± 0.21
AUGCAGCAAUAUUACGACUU | 0.39 ± 0.068 | 0.224 ± 0.075
AGAUAGCAAUAUUACGAUAA | -2.02 ± 0.11 | -1.16 ± 0.11
UUGUAGCAAUAUUACGUAAC | – | -2.12 ± 0.43
AAGAAGCAAUAUUACGCAGA | -2.35 ± 0.17 | -1.5 ± 0.11
GAGUAGCAAUAUUACGAGCG | -2.04 ± 0.075 | -0.489 ± 0.077
UAUAAGCAAUAUUACGGAAC | -4.02 ± 0.42 | -2.94 ± 0.41
AAGAAGCAAUAUUACGGAUU | -1.37 ± 0.097 | -0.421 ± 0.12
UCAAAGCAAUAUUACGAUCC | -3.21 ± 0.3 | -2.34 ± 0.4
AAGCAGCAAUAUUACGGUAC | -3.08 ± 0.23 | -2.49 ± 0.22
UAGUAGCAAUAUUACGUUAA | -2.34 ± 0.17 | -2.06 ± 0.17
GCGCAGCAAUAUUACGGACA | -1.45 ± 0.085 | -0.514 ± 0.089
ACAAAGCAAUAUUACGUGUC | -3.69 ± 0.14 | -3 ± 0.16
AGAGAGCAAUAUUACGGUGU | -3.59 ± 0.25 | -2.97 ± 0.22
AGGGAGCAAUAUUACGGGAU | -3.19 ± 0.46 | -1.48 ± 0.28
